Two molecules from patent publication US20090235392A1 (PIONEER HI BRED INTERNATIONAL, published 2009) can be followed below.

For the test, the target named is T1, GAL4BD:CKI2(590-922) (Arabidopsis thaliana).
T1 construct: Yeast two-hybrid bait; Any linker or tag from the vector is not described; also called AT-CKI2(590-922); pRM430
As to the kind of experiment: yeast two-hybrid. The source says:
Clones representing two independent genes, ARABIDOPSIS HISTIDINE PHOSPHOTRANSFER PROTEIN 3 (AHP3, At5G39340) and At3G28690, a putative serine/threonine protein kinase, were identified from the library screen with GAL4BD:CKI2(590-922). AHPs are the described signaling targets of canonical receptor histidine kinases, such as CRE1, AHK1 and ETR1 (Grefen and Harter, 2004). […] At3G28690 is homologous to the previously published ARABIDOPSIS PROTEIN KINASE 1 (APK1) (Hirayama and Oka, 1992) and APK2 (Ito, et al., 1997) and is designated APK3. […] APK3 has been classified as a Receptor Like Cytoplasmic Kinase (RLCK) VII (Family 1.2.2) in Arabidopsis. […] Its use in modulation of cytokinin-dependent growth responses is being pursued through both transgenic and mutant analysis.
The yeast two-hybrid assays discussed in Example 1 were conducted as follows. Polyadenylated mRNA was isolated from Arabidopsis aerial tissue using a FastTrack™ mRNA kit (Invitrogen, Carlsbad, Calif., USA). First strand cDNA was created using a cDNA synthesis kit (Stratagene, La Jolla, Calif., USA), subsequently cloned into pGADT7 (Clontech, Palo Alto, Calif., USA), and the cDNA library was transformed into the yeast strain AH109 (Clontech).

B1: APK3(115-476) (other)
chain: MFNDLKLATRNFRPESLLGEGGFGCVFKGWIEENGTAPVKPGTGLTVAVKTLNPDGLQGHKEWLAEINFLGNLVHPSLVKLVGYCMEEDQRLLVYEFMPRGSLENHLFRRTLPLPWSVRMKIALGAAKGLAFLHEEAEKPVIYRDFKTSNILLDGEYNAKLSDFGLAKDAPDEKKSHVSTRVMGTYGYAAPEYVMTGHLTTKSDVYSFGVVLLEILTGRRSVDKSRPNGEQNLVEWVRPHLLDKKRFYRLLDPRLEGHYSIKGAQKATQVAAQCLNRDSKARPKMSEVVEALKPLPNLKDFASSSSSFQTMQPVAKNGVRTQGGGFVSRNGPPMRSLSSLNLPQASPYRYARQSPKPKGKEP
notes: Second truncated APK3 tested as a fusion protein in the two-hybrid assay; also called second truncated APK3 protein; At3G28690; not shown: two-hybrid fusion partner
Take B1: the binding result was “no binding”.

B2: full-length APK3 fusion protein (other)
chain: MATKLESFKVVEKLGVEKGEKGKMMSKKKNVKKDGDESESGFWFRFKFIFSCISSRSKVDSSMNATAVIAEPKKVIEKLEGHPAPTKDTGCAESGSSTPLMSGELKYSSKLRIFMFNDLKLATRNFRPESLLGEGGFGCVFKGWIEENGTAPVKPGTGLTVAVKTLNPDGLQGHKEWLAEINFLGNLVHPSLVKLVGYCMEEDQRLLVYEFMPRGSLENHLFRRTLPLPWSVRMKIALGAAKGLAFLHEEAEKPVIYRDFKTSNILLDGEYNAKLSDFGLAKDAPDEKKSHVSTRVMGTYGYAAPEYVMTGHLTTKSDVYSFGVVLLEILTGRRSVDKSRPNGEQNLVEWVRPHLLDKKRFYRLLDPRLEGHYSIKGAQKATQVAAQCLNRDSKARPKMSEVVEALKPLPNLKDFASSSSSFQTMQPVAKNGVRTQGGGFVSRNGPPMRSLSSLNLPQASPYRYARQSPKPKGKEP
notes: Full-length APK3 tested as a fusion protein in the two-hybrid assay; also called AtAPK3; At3G28690; not shown: two-hybrid fusion partner
Turning to B2, the binding result is reported as “no binding”.
